# Results from patent US20230250157A1.
# Biological target: sarbecoviruses tested (pseudovirus spikes)
# Experiment: cell-based or functional assay
row,Binder,pseudovirus neutralization IC50 [µg/mL]
1,"HSW-1 (antibody, V domains shown) VH: QVQLQQPGAELVKPGTSMKLSCKASGYTFTSYWMHWVKQRPGQGLEWIGMIHPNSGSTKYNENFKSKATLTVDKSSSTAYMQFSSLTSEDSAVYYCVRSGSYYGTTYDYFDYWGQGTTLTVSS VL: DIVLTQSPASLAVSLGQRATISCRASESVNIYGNSFMHWYQQKPGQPPKLLIFRASNLESGIPVRFSGSGSRTDFTLTINPVEADDVATYYCHQSNEDPFTFGSGTKLEIK",> 10
2,"HSW-2 (antibody, V domains shown) VH: QVQLQQSGPELVKPGASVKISCKASGYVFSTSWMSWVKQRPGEGPEWIGRIYPRDGHSSSTGKFKDKATLTADKSSNTAYIHLSSLTSEDSAVYFCARDYGYYYFDYWGQGTTLTVSS VL: DIQMTQSPASLSASVGEAVTITCRLSENVYSFLAWYQQKQGKSPQLLVYRAKTLAEGVPSRFSGSGSGTQFSLKINSLQPEDFGTYYCQHHYGTPPTFGGGTKLEIK",> 10
